In the test the target is T1, human CD19 on CD19+ human lymphoma cells (Raji, Daudi, Ramos) (human, UniProt P15391 20-556).
T1 construct: whole, on cells; The target is presented on cells; also called CD19 antigen; CD19 molecule
T1 sequence (looked up): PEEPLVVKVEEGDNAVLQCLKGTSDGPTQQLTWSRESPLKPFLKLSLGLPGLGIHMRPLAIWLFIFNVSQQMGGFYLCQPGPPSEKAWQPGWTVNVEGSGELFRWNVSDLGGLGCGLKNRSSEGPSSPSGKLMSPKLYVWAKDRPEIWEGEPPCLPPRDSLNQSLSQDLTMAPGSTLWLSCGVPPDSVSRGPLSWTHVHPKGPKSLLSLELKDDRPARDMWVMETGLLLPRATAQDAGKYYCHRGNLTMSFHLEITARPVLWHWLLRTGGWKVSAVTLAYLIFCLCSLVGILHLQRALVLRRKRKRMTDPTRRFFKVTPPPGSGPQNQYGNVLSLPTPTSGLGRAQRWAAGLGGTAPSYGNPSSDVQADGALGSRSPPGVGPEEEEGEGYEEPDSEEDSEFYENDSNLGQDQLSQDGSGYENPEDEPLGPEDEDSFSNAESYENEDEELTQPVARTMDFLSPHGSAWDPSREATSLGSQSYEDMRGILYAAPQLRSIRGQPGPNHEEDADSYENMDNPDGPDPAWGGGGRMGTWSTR
Kind of test: direct cell surface binding of 125I-labeled antibody to Raji cells, Scatchard plot analysis.

The values below come from patent US20120189542A1 (published 2012).

The term Kd denotes the constant that tells how readily two partners part at equilibrium.

B1: humanized anti-CD19 antibody hA19 (antibody, V domains shown)
VH: QVQLQQSGAEVKKPGSSVKVSCKASGYAFSSYWMNWVRQRPGQGLEWIGQIWPGDGDTNYNGKFKGRATITADESTNTAYMELSSLRSEDTAFYSCARRETTTVGRYYYAMDYWGQGTTVTVSS
VL: DIQLTQSPSSLSASVGDRVTITCKASQSVDYDGDSYLNWYQQIPGKAPKLLIYDASNLVSGIPPRFSGSGSGTDYTFTISSLQPEDIATYHCQQSTEDPWTFGGGTKLQIKR
notes: It was expressed from pdHL2, which carries human IgG heavy and light chain constant regions (IgG1 per the general description); also called humanized A19 antibody
With B1, the Kd amounted to 1.1 nM.
